System: NSG-SGM3×IL15 mice humanized with human PBMCs
Assay: Cytokine release syndrome (CRS) induction in PBMC-humanized mice, serum cytokine levels
Type: in vivo, mouse
From the text: FIGS. 9A-9C show comparisons of TNF (FIG. 9A), IL-6 (FIG. 9B), and IL-2 (FIG. 9C) levels in NSG-SGM3 mice and NSG-SGM3×IL15 mice engrafted with 5×10^6 human PBMCs per mouse.
FIGS. 10A-10C show comparisons of IFN-γ (FIG. 10A), TNF (FIG. 10B), and IL-6 (FIG. 10C) levels in NSG-SGM3 mice and NSG-SGM3×IL15 mice engrafted with 1×10^6 or 2×10^6 human PBMCs per mouse, with two different doses of irradiation (150 and 175 cGy).
NSG-SGM3×IL15 and NSG-SGM3 mice humanized with human PBMCs and then dosed with various drugs to induce cytokine release syndrome (CRS). Briefly, the mice were irradiated (100 cGy) and administered PBS, OKT3, Anti-CD28, or a CD19×CD3 BiTE.
The use of lower levels of PBMCs for humanization was also tested. Briefly, NSG-SGM3×IL15 and NSG-SGM3 mice were irradiated (150 cGy or 175 cGy) and administered human PBMCs intravenously (1×10^6/mouse or 2×10^6/mouse) on day 0. On day 12, mice were dosed with PBS or OKT3 and serum cytokine levels were analyzed.

Substance: OKT3: drug dosed to induce cytokine release syndrome; known to induce cytokine release
- serum cytokine levels (TNF, IL-6, IL-2) (NSG-SGM3×IL15 mice as compared to NSG-SGM3 mice, irradiated 100 cGy, 5×10^6 human PBMCs per mouse, FIGS. 9A-9C): higher cytokine levels
- serum cytokine levels (IFN-γ, TNF, IL-6) (irradiated 150 cGy or 175 cGy, 1×10^6 or 2×10^6 human PBMCs per mouse, dosed on day 12, drug vs PBS control, FIGS. 10A-10C): greater difference between the drug (OKT3) and control (PBS)

Source: US20250057128A1, “HUMANIZED MOUSE MODELS” (The Jackson Laboratory, priority 2021, published 2025)
